# ± gives the standard deviation.
# Assay: protein stability index of a GFP-peptide fusion (GPS, HEK-293T) (PSI 1-6); higher = more stable
# [1] = treatment: DMSO, c terminus: a fixed tail appended
# [2] = treatment: MLN4924 1 uM, 8 h, c terminus: a fixed tail appended
# 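Note: 24-mer peptide tiles fused after GFP, lentivirally expressed, FACS-sorted into six equal bins by GFP/DsRed ratio, decoded by Illumina sequencing, PSI is the read-weighted mean bin number.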
Sequence,protein stability index [1],protein stability index [2],"protein stability index (treatment: DMSO, c terminus: native)","protein stability index (treatment: MLN4924 1 uM, 8 h, c terminus: native)"
CLFSERDAAGAPRDASDPLAGAAL [SMAD6],4 ± 0.46,4.33 ± 0.2,–,–
MEGDGGTPWALALLRTFDAGEFTG [RIPK4],2.11 ± 0.16,–,–,–
HQLYTSSSHHSHSYIGLPYADHNY [KMT2E],2.5 ± 0.042,2.53 ± 0.21,–,–
AYDEALAELHAHGPAAFVDYFERN [ZSWIM9],3.73 ± 0.24,3.74 ± 0.34,–,–
CGRYINGHMLQHHGNSGHPLVLSY [HDAC6],2.51 ± 0.29,2.65 ± 0.77,–,–
YSQASELPTDAVDCMSRELVSLTS [FBXO34],4.03 ± 0.14,4.11 ± 0.11,–,–
HCWDVAGAGIIVTEAGGVLMDVTG [IMPA1],2.4 ± 0.25,2.52 ± 0.51,–,–
SNEQLKVTQEPRAKKGRRNQSVEP [ZMYND11],5.2 ± 0.32,5.12 ± 0.44,–,–
SGEFGSVFKCVKRLDGCIYAIKRS [WEE1],2.31 ± 0.58,2.65 ± 0.12,–,–
VGSVSVDCGPSRADRCSPKEDQAW [FBXO34],3.66 ± 0.25,4.06 ± 0.33,–,–
FIEGYCTPEEVIWEALNMMGLYDG [MAGEA10],2.48 ± 0.24,2.17 ± 0.26,–,–
PPGNVYWPLRGKREAMLEMLLQHQ [SPAG8],2.52 ± 0.055,2.65 ± 0.3,–,–
VPHWINSNTLGFGTEQAPYGMQTQ [ETS2],2.58 ± 0.41,2.88 ± 0.22,–,–
PVYRRDCHEEVYAGSHQYPGRGVY [ACBD3],2.89 ± 0.29,3.03 ± 0.2,–,–
QGGELVVAYPYDLVRSPWKTQEHT [CPXM2],2.58 ± 0.21,2.15 ± 0.25,–,–
SHLQTNYSKTFQRSNVDFLETPEL [NECAB1],3.47 ± 0.23,3.62 ± 0.57,–,–
SPRLTFQCLEDLVNHYSEVADGLC [SLA],2.79 ± 0.45,3.19 ± 0.54,–,–
ILSEEGRRQQAKLKELQAIAERLG [KCNAB2],3.57 ± 0.38,3.73 ± 0.3,–,–
FSRAGISEAQLTDAETSKLIYDFI [WAS],2.57 ± 0.2,2.95 ± 0.29,–,–
LACLHVACVVQQKDARQWFAELSV [CCNC],3.22 ± 0.61,3.28 ± 0.45,–,–
LVPALRLPGRKLVSSAVSPSIIPQ [INTS4],2.48 ± 0.31,2.46 ± 0.26,–,–
MLQEQLDAINEEIRMIQEEKESTE [PPFIA4],4.75 ± 0.41,4.84 ± 0.11,–,–
PQEPRPPKRATKPKKAPKREKSAP [CPXM2],5.14 ± 0.46,5.42 ± 0.18,–,–

Sequence,protein stability index [1],protein stability index [2],"protein stability index (treatment: DMSO, c terminus: native)","protein stability index (treatment: MLN4924 1 uM, 8 h, c terminus: native)"
EEALENGPKESLPVIAAPSMWTRP [ACBD3],4.64 ± 0.12,4.47 ± 0.24,–,–
TTCSTPLLNSPPSFVCWSRGFMEM [AUP1],2.21 ± 0.26,2.33 ± 0.31,–,–
GIKTVIVNMVDVAKALNRPPTYPT [EIF5],2.32 ± 0.48,2.4 ± 0.59,–,–
PEADCIPKEQLSTSFQWVTKWVDY [PLK2],3.01 ± 0.34,2.8 ± 0.48,–,–
ICCDKCSVWQHIDCMGIDRQHIPD [KMT2E],2.7 ± 0.28,2.87 ± 0.43,–,–
SEIIQITTGSKELDKLLQGGIETG [RAD51],4.11 ± 0.34,4.3 ± 0.26,–,–
SSVYKQQWFAMLRAEQDSEVGPQE [GMCL1],4.08 ± 0.37,4.16 ± 0.24,–,–
DVKVGGSKYGIINLQSLKTPTLKV [DCAF4],2.62 ± 0.2,2.65 ± 0.28,–,–
PWSLFDVLVEKYGWPHEDAAQFTD [SRPK2],2.61 ± 0.28,2.88 ± 0.51,–,–
CATDTKNVQFVFDAVTDVIIKNNL [GNAI1],2 ± 0.28,2.43 ± 0.22,–,–
GREEKCVWKHGITPPLKNVRKKRF [TAF7L],3.98 ± 0.34,4.03 ± 0.41,–,–
LASRNPCPWHYLHLSGSHNTLAPT [RSPH3],2.41 ± 0.14,2.45 ± 0.16,–,–
YSSGEFSSGRKWGDDAPKEEVDTG [INTS4],3.1 ± 0.48,3.97 ± 0.56,–,–
DKPLMPYMRYSRKVWDQVKASNPD [SMARCE1],3.27 ± 0.53,3.44 ± 0.17,–,–
VQGIGIPLVTAIEIVSIWILSFIL [EDNRA],3.02 ± 0.63,2.42 ± 0.49,–,–
GAGAEESELQAYIAQCQDSPTSGK [MCOLN1],5.41 ± 0.14,5.45 ± 0.17,–,–
RTIYHMFIALLILFILSTLVVDYI [SOAT1],2.84 ± 1.7,2.17 ± 0.28,–,–
EKRSRGQVLFDKVCEHLNLLEKDY [EPB41L3],2.87 ± 0.46,3.01 ± 0.62,–,–
GVADFSATYLRCQLLLIKALQEKL [INTS4],2.77 ± 0.42,2.65 ± 0.48,–,–
AWLEGRIRQEFDKLREFLRVEEQA [TRIM35],2.81 ± 0.4,2.94 ± 0.5,–,–
ILSGKFTILNVRDPTGASIALFTA [PTPN9],2.84 ± 0.73,3.19 ± 0.74,–,–
LTEAEGWHFFCFQGEATRKLAGK [SAT2],–,–,2.69 ± 0.29,3.02 ± 0.49
LSKSRTDYQPTQAGRLMRPSVKYL [RNF180],3.19 ± 0.25,3.11 ± 0.49,–,–

Sequence,protein stability index [1],protein stability index [2],"protein stability index (treatment: DMSO, c terminus: native)","protein stability index (treatment: MLN4924 1 uM, 8 h, c terminus: native)"
PKAERLRWSPAQEESFRQMVVIHK [ZNF232],3.19 ± 0.31,3.25 ± 0.37,–,–
HPGSGTKVQFNLQFTKPNASLGDV [SASS6],3.17 ± 0.44,3.23 ± 0.23,–,–
NAGISFSVKKQGETVADVRTLPNA [MLH1],4.37 ± 0.46,4.11 ± 0.1,–,–
RYVYRFVCDLQSLLGYTPEELHAM [ETS1],2.69 ± 0.65,2.5 ± 0.5,–,–
SGADTAKCGIHSMFPLHLAALNAH [ANKRD44],2.07 ± 0.29,2.36 ± 0.11,–,–
LSAVPEEGDATRDPGPEPEEEPGV [PSD2],5.77 ± 0.25,5.48 ± 0.49,–,–
LTEIYRIVSQKQMSDRRENDMSPS [RAB11A],3.54 ± 0.2,3.81 ± 0.12,–,–
GGNPFAEPSELDNPFQDPAVIQHR [SCAMP3],4.67 ± 0.14,4.98 ± 0.17,–,–
PKPSVLFLHPDLGVGGAERLVLDA [ALG2],3.23 ± 0.29,3.15 ± 0.23,–,–
RQSGDRRQLPPPPTPANEERRGGL [WAS],5.42 ± 0.16,5.23 ± 0.068,–,–
DPANCDYVIVSGAQRKEERWDMAD [YJU2B],4.74 ± 0.3,4.63 ± 0.16,–,–
KGDSTIRELKAKLSGVEEELQRTK [SASS6],4.86 ± 0.32,4.58 ± 0.21,–,–
FEAAFGTTPSTSSSSSFDPSVFDG [SNAP91],4.61 ± 0.12,4.53 ± 0.22,–,–
MCSTLEHNCAHFCINIPGSYVCRC [MATN2],3.18 ± 0.33,3.19 ± 0.44,–,–
PSLFHLNTLKRENSSPRVMQRKQS [DLC1],3.92 ± 0.16,4.2 ± 0.15,–,–
CSVRPDASVSSHRFFGPNAEISQP [TCF25],3.57 ± 0.32,3.73 ± 0.092,–,–
QDTEVFSWSDNERSSSRINIPERA [FAM104B],4.62 ± 0.094,4.53 ± 0.067,–,–
NDDSADYQHFLQDCVDGLFKEVKE [DLC1],2.96 ± 0.5,3.54 ± 0.62,–,–
PRMNEVYTRLGEMNNAVRNLQELL [CEP70],3.78 ± 0.18,3.86 ± 0.23,–,–
AMALTSSMNWGINLLISLTFLTVT [SLC2A12],3.14 ± 0.36,3.32 ± 0.33,–,–
ASSQHSEGSRSSGSNRSGSDRRKE [DVL3],5.37 ± 0.16,5.52 ± 0.16,–,–
TSIVYATEKKQTKVEFPEARIYEE [KCTD10],4.5 ± 0.12,4.21 ± 0.55,–,–
MGREKCHQYWPAERSARYQYFVVD [PTPRD],2.3 ± 0.34,2.33 ± 0.14,–,–

Sequence,protein stability index [1],protein stability index [2],"protein stability index (treatment: DMSO, c terminus: native)","protein stability index (treatment: MLN4924 1 uM, 8 h, c terminus: native)"
PNLTYVYPHTRIQSLVSILRTTVH [CLCN6],2.38 ± 0.51,2.23 ± 0.17,–,–
YVVLAYTLPPASRFIIIFEQIRFV [SOAT1],3.27 ± 0.48,2.93 ± 0.53,–,–
ELQQELSLKDQERVAEVSRVRVEL [LRRC45],3.5 ± 0.17,3.78 ± 0.24,–,–
APSLRRHVLIHNTLQQLQAALRLA [SERTAD3],2.21 ± 0.33,2.29 ± 0.13,–,–
TMAQHAEVLVKSNNLTDRIVVIPG [CARM1],3.08 ± 0.22,3.36 ± 0.23,–,–
MAVAQQLRAESDFEQLPDDVAISA [NCF4],4.89 ± 0.27,4.88 ± 0.19,–,–
ADGIEVSYNACGVLSHIMFDGPEA [ZER1],2.93 ± 0.28,2.94 ± 0.27,–,–
FPNRTDQQCQYRWLRVLNPDLVKG [MYBL2],2.4 ± 0.34,2.44 ± 0.53,–,–
EVAAKNQSLEGDTTKGTSEMSEKR [MLH1],5.15 ± 0.26,5.46 ± 0.56,–,–
QAKQEMNESRRQIQSLTCEVDGLR [PRPH],4.55 ± 0.37,4.78 ± 0.18,–,–
PSVRSSKDGKLLAATLLLALLSCC [TNFSF13B],2.73 ± 0.66,2.81 ± 0.85,–,–
FAIGVCTGLVGLFVDFFVRLFTQL [CLCN6],2.65 ± 0.52,2.32 ± 0.56,–,–
TGTYQRAILQNHTDFKDKIVLDVG [CARM1],3.34 ± 0.092,3.35 ± 0.27,–,–
PLSAVYRICLGKFTFPGMSLDKRQ [TPRG1],2.23 ± 0.46,2.24 ± 0.22,–,–
RTVDGSPMMKAAMYSVEITVEKDK [PALM],4.09 ± 0.18,4.1 ± 0.23,–,–
ADAVNLTIPASLDLSPLLGFWQLP [PLAGL1],2.28 ± 0.27,2.28 ± 0.23,–,–
EEERAFWMENNGHVAGEQMLEDGP [CCDC70],5.37 ± 0.35,5.2 ± 0.45,–,–
GHTPLMEAGSAGHVEVARLLLENG [ANKRD17],4.22 ± 0.24,4.17 ± 0.24,–,–
PLPWSECPVVRNGSVAVVEAECEK [SLC6A17],5.443 ± 0.034,5.3 ± 0.29,–,–
IKWLKEAEEESSGGEEEDEDENIE [EIF5],5.41 ± 0.14,5.49 ± 0.25,–,–

# Source: the supplement of paper PMC10567573
